Experimental data from patent US20080003218A1.

Target: FcεRI-bound IgE (human IgE loaded on CHO 3D10 cells expressing FcεRI alpha chain) (human) (UniProt P01854)
Assay: FACS on IgE-loaded CHO 3D10 cells (FIG. 4)

FcεRI-bound IgE (human IgE loaded on CHO 3D10 cells expressing FcεRI alpha chain) (human), sequence (P01854 whole entry, chain 1 of 2): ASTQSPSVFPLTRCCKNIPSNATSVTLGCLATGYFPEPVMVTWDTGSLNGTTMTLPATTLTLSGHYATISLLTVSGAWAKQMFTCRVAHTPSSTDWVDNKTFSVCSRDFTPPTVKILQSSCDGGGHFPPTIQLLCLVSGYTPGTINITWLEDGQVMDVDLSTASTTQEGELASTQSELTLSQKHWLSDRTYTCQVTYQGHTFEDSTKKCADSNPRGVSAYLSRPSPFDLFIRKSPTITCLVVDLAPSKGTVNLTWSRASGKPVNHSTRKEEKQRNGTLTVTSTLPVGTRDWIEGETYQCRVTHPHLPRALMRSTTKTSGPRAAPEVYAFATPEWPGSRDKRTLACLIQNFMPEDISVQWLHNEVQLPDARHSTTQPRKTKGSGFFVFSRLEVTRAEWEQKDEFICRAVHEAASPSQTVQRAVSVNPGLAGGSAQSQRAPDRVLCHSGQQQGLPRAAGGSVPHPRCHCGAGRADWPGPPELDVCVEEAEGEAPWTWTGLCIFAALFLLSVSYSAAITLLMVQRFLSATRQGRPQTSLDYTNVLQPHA
FcεRI-bound IgE (human IgE loaded on CHO 3D10 cells expressing FcεRI alpha chain) (human), sequence (P12319 26-257, chain 2 of 2, further chain): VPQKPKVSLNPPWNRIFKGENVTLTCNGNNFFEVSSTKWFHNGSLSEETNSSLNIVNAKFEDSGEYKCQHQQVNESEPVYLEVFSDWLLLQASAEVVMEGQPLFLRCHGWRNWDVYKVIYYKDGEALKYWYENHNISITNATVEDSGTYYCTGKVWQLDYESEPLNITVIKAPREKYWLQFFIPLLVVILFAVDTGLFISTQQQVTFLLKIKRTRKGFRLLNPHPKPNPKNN

Row | mean channel fluorescence at 0.1 µg/ml (mean channel fluorescence) | Substance
1 | 6.4 | murine anti-human IgE monoclonal antibody MaE11
2 | 7.3 | MOPC21 (murine IgG1 control antibody)
3 | 4.7 | humanized mAb 4D5 (human IgG1 control antibody)
